{
  "source": "paper PMC3090699",
  "about": "(Amino acids, 2010)",
  "biological_target": "the molecule itself",
  "assay": "SEC",
  "data": [
    {"protein": "methionine adenosyltransferase from Methanococcus jannaschii, wild type (enzyme, UniProt Q58605 1-406, looked up) MRNIIVKKLDVEPIEERPTEIVERKGLGHPDSICDGIAESVSRALCKMYMEKFGTILHHNTDQVELVGGHAYPKFGGGVMVSPIYILLSGRATMEILDKEKNEVIKLPVGTTAVKAAKEYLKKVLRNVDVDKDVIIDCRIGQGSMDLVDVFERQKNEVPLANDTSFGVGYAPLSTTERLVLETERFLNSDELKNEIPAVGEDIKVMGLREGKKITLTIAMAVVDRYVKNIEEYKEVIEKVRKKVEDLAKKIADGYEVEIHINTADDYERESVYLTVTGTSAEMGDDGSVGRGNRVNGLITPFRPMSMEAASGKNPVNHVGKIYNILANLIANDIAKLEGVKECYVRILSQIGKPINEPKALDIEIITEDSYDIKDIEPKAKEIANKWLDNIMEVQKMIVEGKVTTF", "values": [
      {"measurement": "stoichiometry N", "value": 2}
    ]}
  ]
}
